Test results: patent US20220387578A1 (VANDERBILT UNIVERSITY, published 2022)
Changes are numbered by the printed parent chain. Where two headings read alike, the source gives them in different places.

T1: eHead_H1Solomon (wild-type H1 head domain monomer) (influenza A virus, UniProt B4URD6 65-276)
T1 chain: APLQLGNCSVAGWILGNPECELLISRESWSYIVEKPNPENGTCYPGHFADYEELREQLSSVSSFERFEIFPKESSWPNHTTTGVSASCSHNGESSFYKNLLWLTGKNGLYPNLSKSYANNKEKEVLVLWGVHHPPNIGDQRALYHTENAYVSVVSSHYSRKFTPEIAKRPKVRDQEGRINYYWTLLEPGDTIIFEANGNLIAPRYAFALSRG

B1: mAb H5.31 (hybridoma IgG) (antibody, V domains shown)
VH: EVQLVQSGGGLVQPGGSLRLSCEASRFTSSSYWITWVRQAPGKGLEWVANIKQDGSEKYFVDSVKGRFTISRDNASNSLYLQMSSLRAEDTAVYYCARGFLERLLLGRQGAYYYGMDVWGQGTTVTVSS
VL: DIQMTQSPSSLSASVGDRVTMTCRASQSISSSLNWYQQKPGKAPKLLIYAASNLQSGVPSRFSGSGSGTDFTLTISSLQPEDFATYYCQQSYTMPPELTFGGGTKVQIK
B2: mAb H5.28 (hybridoma IgG) (antibody, V domains shown)
VH: EVQLVESGGGLVQPGGSLRLSCAASGFTFSTYWMTWVRQAPGKGLEWVANINQDGGEKYFVDSVKGRFTISRDNAKNSLFLQMNTLRAEDTAVYYCARGFLERLLLGRQGAYYYGMDVWGQGTTVTVSS
VL: B1 VL with T20S, S28I, T93S, M94T, Q107E
B3: FluA-20-UCA IgG (unmutated common ancestor of FluA-20) (antibody, V domains shown)
VH: QVQLQESGPGLVKPSETLSLTCTVSGGSVSSGSYYWSWIRQPPGKGLEWIGYIYYSGSTNYNPSLKSRVTISVDTSKNQFSLKLSSVTAADTAVYYCARGTEDLGYCSGGSCPNHWGQGTLVTVSS
VL: not shown
B4: FluA20_UCA (as used in the SPR experiments of Example 4) (antibody, V domains shown)
VH: B3 VH
VL: not shown
B5: FluA-20 UCA Fab (Fab, V domains shown)
VH: B3 VH
VL: not shown
B6: rFluA-20 Fab (Fab, V domains shown)
VH: QVQLQESGPGLVKPSETLSLTCSVSGVSVTSDIYYWTWIRQPPGKGLEWIGYIFYNGDTNYNPSLKSRVTMSIDTSKNEFSLRLTSVTAADTAVYFCARGTEDLGYCSSGSCPNHWGQGTLVTVSS
VL: DIQMTQSPSSLSASIGDRVTITCRPSQNIRSFLNWFQHKPGKAPKLLIYAASNLQSGVPSRFSGSGSGTEFTLTIRSLQPEDFATYYCQQSYNTPPTFGQGTKVEIK

How the values were obtained:
[1] = target: H5 HA A/Indonesia/05/2005 (H5N1), recombinant (influenza A virus); test: ELISA on coated recombinant HA
[2] = target: H2 HA A/Singapore/1/1957, recombinant soluble trimer (influenza A virus); test: ELISA on coated recombinant HA
A/Puerto Rico/8/1934 = A/Puerto Rico/8/1934 (Influenza A virus); test: ELISA on coated recombinant HA
[3] = target: A/Duck/Czechoslovakia/1956 (Influenza A virus); test: ELISA on coated recombinant HA
[4] = target: T2, H3 HA A/Texas/50/2012, recombinant soluble trimer (influenza A virus); test: ELISA on coated recombinant HA
T2 construct: extracellular domain

[5] = target: H12 HA A/duck/Alberta/60/1976, recombinant (influenza A virus); test: ELISA on coated recombinant HA
[6] = target: H5 HA A/Vietnam/1203/2004 (H5N1), recombinant (influenza A virus); test: ELISA on coated recombinant HA
[7] = target: A/Turkey/Ontario/6118/1967 (Influenza A virus); test: ELISA on coated recombinant HA
[8] = target: H7 HA A/New York/107/2003, recombinant (influenza A virus); test: ELISA on coated recombinant HA
[9] = target: T3, H3 HA A/Hong Kong/1/1968 (H3N2), recombinant soluble trimer (influenza A virus, UniProt Q91MA7 17-530); test: ELISA on coated recombinant HA
[10] = target: T4, H1 HA A/Texas/36/1991 (H1N1), recombinant soluble trimer (influenza A virus); test: ELISA on coated recombinant HA
T4 construct: extracellular domain

[11] = target: T3, H3 HA A/Hong Kong/1/1968 (H3N2), …; test: ELISA on coated recombinant HA; remark: listed apart in the source
[12] = target: T5, eHead-H3HK68_v1 (wild-type H3 head domain monomer) (influenza A virus, UniProt Q91MA7 53-335); test: SPR (Example 4, Table E)
[13] = target: T1, eHead_H1Solomon (wild-type H1 head …); test: SPR (Example 4, Table E)
[14] = target: T5, eHead-H3HK68_v1 (wild-type H3 head …); test: SPR
[15] = target: T1, eHead_H1Solomon (wild-type H1 head …); test: SPR
[16] = target: H1 HA A/South Carolina/1/1918 (H1N1) (influenza A virus, UniProt Q9WFX3 18-529); test: BLI, biotinylated HA on streptavidin sensor
[17] = target: T3, H3 HA A/Hong Kong/1/1968 (H3N2), …; test: BLI, biotinylated HA on streptavidin sensor

Row | Binder | EC50 [1] | EC50 [2] | EC50 (A/Puerto Rico/8/1934) | EC50 [3] | EC50 [4] | EC50 [5] | EC50 [6] | EC50 [7] | EC50 [8] | EC50 [9] | EC50 [10] | Kd [16] | further results
1 | B1 | > 2.5 µg/mL | 0.004 µg/mL | 0.004 µg/mL | 0.006 µg/mL | 0.936 µg/mL | 0.002 µg/mL | 0.006 µg/mL | 0.004 µg/mL | > 2.5 µg/mL | 0.009 µg/mL | 0.006 µg/mL |  | 
2 | B2 | > 2.5 µg/mL | 0.014 µg/mL | 0.01 µg/mL | 0.021 µg/mL | > 2.5 µg/mL | 0.269 µg/mL | 0.182 µg/mL | > 2.5 µg/mL | > 2.5 µg/mL | > 2.5 µg/mL | 0.022 µg/mL |  | 
3 | B3 |  |  |  |  |  |  |  |  |  |  |  |  | EC50 [11]: 0.021 µg/mL
4 | B4 |  |  |  |  |  |  |  |  |  |  |  |  | Kd [12]: ~500 nM; Kd [13]: ~500 nM; Kd [14]: 530 nM; Kd [15]: 500 nM
5 | B5 |  |  |  |  |  |  |  |  |  |  |  | 937 nM | Kd [17]: 486 nM
6 | B6 |  |  |  |  |  |  |  |  |  |  |  | 46 nM | 
